This data set has as its system Saccharomyces cerevisiae. The data set can be described thus: transcriptional activation domain activity (GFP:mCherry ratio, weighted mean of sorted bins, harmonized to initial dataset scale) (arbitrary fluorescence ratio units); higher = stronger transcriptional activation. The conditions noted are these: beta-estradiol 1 µM; induction time 4 h. In a few lines: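 Activation activity, the read-weighted mean of bin median fluorescence averaged across barcodes, was linearly mapped onto the scale of the initial dataset. It was measured for barcoded protein tiles fused to an estradiol-inducible synthetic transcription factor at URA3 in GFP-reporter yeast diploids. Cultures diluted 1:5 into SC with 1 uM beta-estradiol were held 4 hours at 30 °C, sorted into 8 bins by GFP:mCherry ratio, and barcode-sequenced, and tiles under 50 reads were discarded.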
With “RSLGIVFYFGLLLSFYFEFFFSSIFSFVIIIWLYPIGFLYICLSAAIPFPLLN”, the “transcriptional activation domain activity” value amounted to 65000.
For the sequence “MGFCFYVAGCMSISLILLFSFCLLLPPIFTGYQILWLLWIILPILSMSMLFTP”, the “transcriptional activation domain activity” value turned out to be 43400.
For the sequence “SRRPAKKVKEEGEKKAASGDKKGRGKALSEKSKPDAKGSKAKSKHKKDSDSEE”, the “transcriptional activation domain activity” value worked out at 24900.
Turning to “MISTLAMSLLETPIEPRTHAEICLEFWGIRLCSPITDINLAAFWNYYFKTIAH”, the “transcriptional activation domain activity” value was determined as 45600.
On to “AAAAALRTEETADSAGQLAEAGCRSVDTADTAEGCLEEMAVVVVAVASSVGAM”, for which the “transcriptional activation domain activity” value was found to be 55600.
Take “RIFGLQSPQLVYVESMARVRKLSLSGKILRLLVDRFFVQWEALADGKTGSRWW”: the “transcriptional activation domain activity” value turned out to be 61100.
Turning to “MEFSFTMVGIFYFLYSLAWSFSFLFFISYDHSLAGLVTIVKAFLISYYFFIFL”, the “transcriptional activation domain activity” value is 26200.
With “DIETLLVYDYYPKPLLDIDLTIRGRHIYLPIEKTWLRYVPKPPWYLLVLLFAG”, the “transcriptional activation domain activity” value came to 60500.
For “LVDVFGRIESCFQRIGIYTRVPPTTEMMDMIIQIMVEVLTILGIATKEMKQSR”, the “transcriptional activation domain activity” value stood at 63000.
Regarding “MCNVALSLAWFIFPPFLHGILPFSTCLLLVFFLSLSSSFFSLITHLLLHCYLF”, the “transcriptional activation domain activity” value turned out to be 34900.
As to “MSDAAAPAPAPVEEVKPAEAAPEVVPAPRPLRRSPRPRRLRPLRPPPPSAAAE”, the “transcriptional activation domain activity” value amounted to 28400.
The result for “PAPKKAAAPAKKDALKAKKEESSSSSSDSEDEKPAPKKAAASAAKKVVAKAQK” reads 21000; that for “SGDAVMKDAVEEAGAAAAEAKPEPEPKPEPKPKRKAPAKKAKIVAAVSAAIAN”, 26600; that for “FCHIALFPSIGLKDTNYIPRAMDGVRFAHLESLHLQFNMYWLGPMYAWALHIL”, 52500.
Under “QFARFTLEETNLMWKRAANPELTPLTSFPPLWVATRLRLFYVINSILSYFMTT” stands 60800.
“PCMLRLLIWIAFKLVPENSSIREPLNFLLDHPRRCYTLLFPSGPTWTLFAFLV”: the “transcriptional activation domain activity” value was 60500.
“DNTPVLQEYLAVFRHLLSFHDPELSSHLDTIGFMPDLYAIPWFLTLFTHVFPL”: the “transcriptional activation domain activity” value amounted to 64500.
For “MPLWPPFWSAFSFSFSFVLSFFFFLFPFPFPFPFPFSFSLSFLFFLFFSFLFF”, the “transcriptional activation domain activity” value came out at 31000.
As to “VPPELYVCAEIVRMVMGYVEGGFVKSSSNHKIRPEVLLIACLIVSIKICYSME”, the “transcriptional activation domain activity” value was determined as 61300.
The result for “MGFFFVFYLLLSHCCFSLWVRGFGFFLSHPVFLFYILGGFCLVCFFPFFFPIN” reads 48900; that for “SDESTKADSGNKDNPGGAEKSGDEKEKEKDGGTSRMRSRKGKFRKNKAEDIEK”, 30400; that for “SSGDERQKHQTKSSSKKSREKSKKAAGRNKAEEAKTNDGRKSTRKPSKRTRST”, 24900.
Under “VFTDSLFQIVLVGRLTGFFYSFSFLFFFLSFFFFFSFIPFFPPFLYGLFFFLF” stands 67600.
As for “LLYCNQIYLICPYVVNNKVQRQVSPRDMLIVLEAALKITSIYKILTYVYFENI”, the “transcriptional activation domain activity” value came out at 58700.
Regarding “NILVRELQWCILCIRYTALGSLDHIRRLMTEIPAHHGLVRFLQRWVENWLEEQ”, the “transcriptional activation domain activity” value is 37400.
With “MADAITESTAKLQLDEETGEMVSKGELKKRLAKRAKKAAQAKAKAEAPAPLAT”, the “transcriptional activation domain activity” value was 36300.
For the sequence “EDDDERRRKESSSSSRRKDRDRDDDGHERKDRKDRKHGSHRDRETDREREKRK”, the “transcriptional activation domain activity” value stood at 33000.
In the case of “RVVVVTDAFQKMDHFYWSLQAWLMYRFDALSACSTFAMTLLALYDDLSPGLTA”, the “transcriptional activation domain activity” value was 83700.
Consider “GERGRGGEEERRGRGRGRGREEREREKERRERERRRRREEEEERGEEERRGRR”, for which the “transcriptional activation domain activity” value was 29400.
In the case of “DSEEERMRRRRAKSRDPERERERKASRSPEKKPARSKSRLGRLAAGAAAAGAA”, the “transcriptional activation domain activity” value was 50300.
Turning to “FAHIQPGLNVPIRAIMLCYLFNVAFGLLYLGPSVAFGAYISSCTILLNVSYAF”, the “transcriptional activation domain activity” value worked out at 57100.
As to “FSHIQPGLNVPVRTIMFCFLFNVAFGLLYLGPSVAFGAYVASCTILLNISYAF”, the “transcriptional activation domain activity” value is 70800.
For “GVLALSPCDDTTLKATMGVIEELLIYLYFAGQMRELFYWACRVVNLSVHHGHA”, the “transcriptional activation domain activity” value stood at 69100.
For “SKRAQDPLRIWDAMIDVHVHLPAGAQKKDGPSAGVAMVIVCAIVSLLTGKCVP”, the “transcriptional activation domain activity” value turned out to be 46600.
“LLKLKMATKTNDIALYEHFIDMSLRFLPFWNMIVSYYLCLLLLFNTTHIIFIL”: the “transcriptional activation domain activity” value was found to be 90500.
“IHQASIAHHPAQHPQRKAHQHSRGGARPQHESQEATRRLGPRHPAHVAALHRR”: the “transcriptional activation domain activity” value is 30500.
Consider “LFLLLMFQGLDIFTPGIRVLHFRICLLLLLLIILLAVPLLFSYIHLTAFTIFY”, for which the “transcriptional activation domain activity” value came out at 59100.
Turning to “PENWTMDSWPLYWPQALIDTIPSLQLSIPPMDLTTLDNPLAPFAFFMFLFSWQ”, the “transcriptional activation domain activity” value was determined as 53400.
Under “VYIYAKTISIVLLTDIYIGKYTYILISLKLLARKKFYNILTNPIFCAHIRLVI” stands 55300.
As to “VYILVSYFLLGPRCLILIASTFLLSYHSSWSIVTRRVLWRFKVVRLIFFYLTG”, the “transcriptional activation domain activity” value is 61700.
Under “MLFSLYLFFYFLFFVCDGYVTMGSVFFFCSCWWCSYYYLTINIGLTNYFFPPL” stands 53300.
Under “MVMVKIPFLLAFVYLFLVLHSHVLVHSFRNFTSLLVFACLLGVGMWRCVWTQM” stands 58000.
With “MSFKFFFCLLIPSFSLFKITYAWSYLMILEVVFSPFFSQVVVFVLFILHHFYH”, the “transcriptional activation domain activity” value is 53000.
The result for “ELRNHMSAIIDICWGACGTYKGVELWLEWDRNDNVPFHDSLWRVVRFVIFVNH” reads 63200; that for “LQRKNPEEQIAVNKVISLLYSNRESSYLEDTCPTENDYSDLLKGYINEIEKTL”, 33800.
As to “LSLLVLGCWIPCIVVMEGYLRSLTFESFPYPGLYCFTSQGSHIVYLCWVLVAV”, the “transcriptional activation domain activity” value worked out at 46200.
In the case of “TGNSVWAFHALLSKGYFHMLCKDIDINPERVLATLMLVLSHIFERQLCKHSDI”, the “transcriptional activation domain activity” value is 48500.
As for “MVKSFALGGLILLFSFLLLLLLLSLLLLFISSLLSLSLIPFFLFDSLSIARFS”, the “transcriptional activation domain activity” value turned out to be 64400.
Under “GQHEGLDKLREYHEHVLDRILFALLLRKRQKPVMKLLEEIFTLVLKFSKYSSA” stands 59400; under “ADANGGGLKAGGRVTIAIVRQAILEATSSPLQVYLKTCPLASKVFLVALLVRC”, 58100.
The result for “GSEIVDGDEESSPDGVRIKAESGSSAPVATSSALPPQGGYIGRLNVRKSGKIE” reads 29800; that for “MLFIPFCVLFFVWLWGLINYGAFVDPCFLSFYVLLSTLLQLPSSSFLSFFALF”, 54400; that for “MRYRPSEDLGKKLLLLFIYILFRGKLVVNPFHFFSSFLSFFFFFFFVFFALLL”, 35900.
Take “ERQGRGQREERRREDHSRTRVPQRQGQEQREERRREDQYSRQEQQSQGLGQRK”: the “transcriptional activation domain activity” value was 42100.
As to “ENNDQFNNKTRKRKRRMSSTSSTSKASRKNSISRKNSAVTTAPAQKDDVENNK”, the “transcriptional activation domain activity” value was below 6570.
“RKEKGRNANNAKKGQNKRGGAQKEKAKTKVKSGEVSAEPGMKRGKRGRRRAAA”: the “transcriptional activation domain activity” value is 48200.
Turning to “AAPSKPASPTKAAAPVSKPVTPAPQKAAPVQQQSKPATPAPQQKAATPAPKTA”, the “transcriptional activation domain activity” value amounted to 29500.
As to “YTRCEVIYLKRSLPSYFGPSMLQFTILFILIVTNSIVLLGLFLLLCRTLWGLA”, the “transcriptional activation domain activity” value amounted to 19500.
For “GKVPRRTERRKLWDDVKALRKELIDILLFSPLSLADIHFRYRKREGGVVNYYL”, the “transcriptional activation domain activity” value amounted to 21800.
Under “MGLWARFICFVIPLFFHYFPLFSFSFLLNIFPHYIYFFPTFYKSGPLFLCFFM” stands 50500; under “TRTLFMVPQLCCAFSSMWLYQILVAVSIYLTNHVGIMMVRVWSYCVAVYVLEV”, 69800.
The result for “GWVVILSSRCRIKTSVSRERLKMDVFWLIESIGLTVEYWRIVWDLRATYHFLR” reads 33000; that for “KVDNGGKVDNSGKVDNGRKVDSRKIDDGRKVDDGRNVDNRGRVDEGGGVVKGG”, 19500.
For “LALVIDVRFPKHPTMSNYSLVCAVRALLDFVELARYPVHTDATLRLLNDALRV”, the “transcriptional activation domain activity” value is 51200.
“FRAPYPCCLDVVFAMIWAGARVCLFDSTKALEDLLLARFVLPPHVVCLVGLAQ”: the “transcriptional activation domain activity” value was 48900.
For the sequence “DDEEENKSAPAKKSRAKKTVKKEEDDDDNNAEEAKPAPAKKSRAKKAVKKEED”, the “transcriptional activation domain activity” value was 57900.
Consider “MRIRYEMSWGFLLSFLLSNGRRKIDHGTSSLRMTLGFLIAHRVYMMIILNFYT”, for which the “transcriptional activation domain activity” value was 47200.
On to “SCCMLQVISGIAMGNSCLARMNFWPVIASNFPWLLIVIINYTMFFNWMLSYFL”, for which the “transcriptional activation domain activity” value came out at 62400.
Turning to “VGVWIWVRVDLLSYRKAGFIDWLFTDVPPKLALIAIFNVHILHTLLLALQWYT”, the “transcriptional activation domain activity” value was 55400.
For “ASNTTEVQLFINGSYVLLDTVCTRVLLYPDQILSNFRREDIALLCLQFWLFFI”, the “transcriptional activation domain activity” value was 28700.
Turning to “MSEPPRKRAKLACVTCNARRVKCDVTERQPCSNCIAGNALCETRESKRGKHPR”, the “transcriptional activation domain activity” value came to 15300.
In the case of “MPPRYIRYADRAVIENLSWYYWVFNPIMIGLYGPVRTIIDIYFRYFYNCILLF”, the “transcriptional activation domain activity” value turned out to be 40100.
Regarding “EKNKAEKKVKTPKSPKKEKKKEEPAAAAVEEPAKEEAAPAEAPAAPVEEPAKV”, the “transcriptional activation domain activity” value was 22800.
The result for “GRGVKAGGGPRDREGGERGRERGEEGGEEGARRKEGDSRKEPAGGERREREEG” reads 33400.

Values taken from the supplement of paper PMC12636428.
